# How the values were obtained:
# Experiment in all cases: purified protein
# Details in all cases: phosphate-buffered saline 50 mM, pH 7.0, 37 °C
# [1] = test system: CC(=O)OCC1=C(C(=O)O)N2C(=O)[C@@H](NC(=O)Cc3cccs3)[C@H]2SC1
# [2] = test system: Cc1onc(-c2ccccc2)c1C(=O)N[C@@H]1C(=O)N2[C@@H]1SC(C)(C)[C@@H]2C(=O)O
# [3] = test system: CO/N=C(\C(=O)N[C@@H]1C(=O)N2C(C(=O)[O-])=C(C[N+]3(C)CCCC3)CS[C@H]12)c1csc(N)n1
# [4] = test system: CO/N=C(\C(=O)N[C@@H]1C(=O)N2C(C(=O)O)=C(CSc3nc(=O)c(=O)[nH]n3C)CS[C@H]12)c1csc(N)n1
# [5] = test system: Cc1nnc(SCC2=C(C(=O)O)N3C(=O)[C@@H](NC(=O)Cn4cnnn4)[C@H]3SC2)s1
# [6] = test system: CO/N=C(\C(=O)N[C@@H]1C(=O)N2C(C(=O)O)=C(COC(C)=O)CS[C@H]12)c1csc(N)n1
# [7] = test system: C[C@H]1[C@H](NC(=O)/C(=N\OC(C)(C)C(=O)O)c2csc(N)n2)C(=O)N1S(=O)(=O)O
# [8] = test system: CC1=C(C(=O)O)N2C(=O)[C@@H](NC(=O)[C@H](N)C3=CCC=CC3)[C@H]2SC1
# [9] = test system: CCN1CCN(C(=O)N[C@@H](C(=O)N[C@@H]2C(=O)N3C(C(=O)O)=C(CSc4nnnn4C)CS[C@H]23)c2ccc(O)cc2)C(=O)C1=O
# [10] = test system: CC(C)(O/N=C(\C(=O)N[C@@H]1C(=O)N2C(C(=O)[O-])=C(C[n+]3ccccc3)CS[C@H]12)c1csc(N)n1)C(=O)O
# [11] = test system: C[C@@H](O)[C@H]1C(=O)N2C(C(=O)O)=C(S[C@@H]3CN[C@H](C(=O)N(C)C)C3)[C@H](C)[C@H]12
substance,measurement,setting,value
PAD-1 (Paramesorhizobium deserti),Km,[1],91.59 µM
same,kcat,[1],15.2 s⁻¹
same,kcat/Km,[1],166000 M⁻¹ s⁻¹
same,Km,[2],383.96 µM
same,kcat,[2],58.7 s⁻¹
same,kcat/Km,[2],153000 M⁻¹ s⁻¹
same,Km,[3],108.40 µM
same,kcat,[3],10.4 s⁻¹
same,kcat/Km,[3],95900 M⁻¹ s⁻¹
same,Km,[4],90.84 µM
same,kcat,[4],16.3 s⁻¹
same,kcat/Km,[4],179000 M⁻¹ s⁻¹
same,Km,[5],89.16 µM
same,kcat,[5],22.6 s⁻¹
same,kcat/Km,[5],253000 M⁻¹ s⁻¹
same,Km,[6],137.08 µM
same,kcat,[6],20.1 s⁻¹
same,kcat/Km,[6],146000 M⁻¹ s⁻¹
same,Km,[7],276.08 µM
same,kcat,[7],39 s⁻¹
same,kcat/Km,[7],141000 M⁻¹ s⁻¹
same,Km,[8],347.9 µM
same,kcat,[8],31.8 s⁻¹
same,kcat/Km,[8],91300 M⁻¹ s⁻¹
same,Km,[9],47.80 µM
same,kcat,[9],15.1 s⁻¹
same,kcat/Km,[9],315000 M⁻¹ s⁻¹
same,Km,[10],110.04 µM
same,kcat,[10],12.1 s⁻¹
same,kcat/Km,[10],110000 M⁻¹ s⁻¹
same,Km,[11],389.69 µM
same,kcat,[11],24.2 s⁻¹
same,kcat/Km,[11],62200 M⁻¹ s⁻¹
